Experimental findings from paper PMC8184850, “Cryo-EM structure of TFIIH/Rad4–Rad23–Rad33 in damaged DNA opening in nucleotide excision repair” (Nature Communications, 2021) are described below.

In one series the target is coreTFIIH (7 subunits) (Saccharomyces cerevisiae? (yeast, tfb6 …, UniProt Q00578;P06839;P32776;Q02939;Q04673;Q12004;Q3E7C1 …)). Description: glycerol gradient sedimentation; ATP; EMSA: 20 mM HEPES, 100 mM K-acetate, 2 mM Mg-acetate, 5 mM DTT, room temperature 20 min, 250 nM each component, 0.2x TBE agarose gel at 4 C (pH not stated in this buffer). Conditions: protein: native; tags: TAP tags on Tfb4 and Ssl2; TEV-treated; copies: 1;1;1;1;1;1;1; label: 32P 5' end (T4 PNK) in EMSA; 5' overhang on strand 1: 9 nt from printed strands (text says 10 nt).

The next series concerns the target T1, 7-subunit coreTFIIH (Saccharomyces cerevisiae | yeast, UniProt Q00578 1-843; P06839 1-778; P32776 1-642; Q02939 1-513; Q04673 1-461; Q12004 …).
T1 construct: Ssl2 (XPB homologue), ATPase/translocase subunit of yeast coreTFIIH; printed numbering runs to residue 843; Rad3 (XPD homologue), helicase subunit of yeast coreTFIIH; Tfb1 (p62 homologue), subunit of yeast coreTFIIH; Tfb2 (p52 homologue), subunit of yeast coreTFIIH; Ssl1 (p44 homologue), subunit of yeast coreTFIIH; Tfb4 (p34 homologue), subunit of yeast coreTFIIH; Tfb5 (p8 homologue), subunit of …
Put plainly: co-sedimentation; factor challenge: Rad2 added (~6-fold molar excess) to TFIIH/Rad4–23–33/AAF-DNA with ATP, 60 min, then 10–40% glycerol gradient (150 mM potassium acetate, 2 mM ATP), 4 °C; SDS-PAGE and densitometry. Conditions: both partners purified.

For series [1], the target named is T2, 10-subunit holoTFIIH (coreTFIIH with TFIIK: Kin28–Ccl1–Tfb3) (Saccharomyces cerevisiae | yeast, UniProt Q00578 1-843; P06839 1-778; P32776 1-642; Q02939 1-513; Q04673 1-461; Q12004 …).
T2 construct: Ssl2 (XPB homologue), subunit of yeast TFIIH; Rad3 (XPD homologue), subunit of yeast TFIIH; Tfb1 (p62 homologue), subunit of yeast TFIIH; Tfb2 (p52 homologue), subunit of yeast TFIIH; Ssl1 (p44 homologue), subunit of yeast TFIIH; Tfb4 (p34 homologue), subunit of yeast TFIIH; Tfb5 (p8 homologue), subunit of yeast TFIIH; Kin28, kinase subunit of yeast TFIIK; Ccl1, cyclin subunit of yeast TFIIK; …
Description: co-sedimentation; 10–40% glycerol gradient (20 mM HEPES, 150 mM potassium acetate, 2 mM magnesium acetate, 4 mM DTT, 2 mM ATP or AMP-PNP), 52,000 rpm 6 h 35 min, 4 °C; Rad4–Rad23–Rad33 pre-assembled on −24*/+24 AAF-DNA, then added to TFIIH; fractions by SDS-PAGE. The following applies: both partners purified.

B1: -24*/+24 AAF (dsDNA)
DNA 1: CCCATTCCAACCATCCCACTACCTGTCCATCTTCACTCAACTATCACCC
DNA 2: GGGTGATAGTTGAGTGAAGATGGACAGGTAGTGGGATGGT
modifications: N-2-acetylaminofluorene adduct on the single G of strand 1 (nt 25, position 0)
In the case of B1, the binding result in the series with coreTFIIH (7 subunits) was “binds”.

B2: Rad2 (natural protein, yeast, UniProt P07276 1-1031, looked up)
chain: MGVHSFWDIAGPTARPVRLESLEDKRMAVDASIWIYQFLKAVRDQEGNAVKNSHITGFFRRICKLLYFGIRPVFVFDGGVPVLKRETIRQRKERRQGKRESAKSTARKLLALQLQNGSNDNVKNSTPSSGSSVQIFKPQDEWDLPDIPGFKYDKEDARVNSNKTFEKLMNSINGDGLEDIDLDTINPASAEFEELPKATQYLILSSLRLKSRLRMGYSKEQLETIFPNSMDFSRFQIDMVKRRNFFTQKLINTTGFQDGGASKLNEEVINRISGQKSKEYKLTKTNNGWILGLGANDGSDAQKAIVIDDKDAGALVKQLDSNAEDGDVLRWDDLEDNSLKIVRHESSNATTAPQKRSNRSEDEGCDSDECEWEEVELKPKNVKFVEDFSLKAARLPYMGQSLNNAGSKSFLDKRHDQASPSKTTPTMRISRISVEDDDEDYLKQIEEIEMMEAVQLSKMEKKPEADDKSKIAKPVTSKGTEARPPIVQYGLLGAQPDSKQPYHVTNLNSKSESVIKRTSKTVLSEFRPPSQQEDKGAILTEGEQNLNFISHKIPQFDFNNENSLLFQKNTESNVSQEATKEKSPIPEMPSWFSSTASQQLYNPYNTTNFVEDKNVRNEQESGAETTNKGSSYELLTGLNATEILERESEKESSNDENKDDDLEVLSEELFEDVPTKSQISKEAEDNDSRKVESINKEHRKPLIFDYDFSEDEEDNIVENMIKEQEEFDTFKNTTLSTSAERNVAENAFVEDELFEQQMKDKRDSDEVTMDMIKEVQELLSRFGIPYITAPMEAEAQCAELLQLNLVDGIITDDSDVFLFGGTKIYKNMFHEKNYVEFYDAESILKLLGLDRKNMIELAQLLGSDYTNGLKGMGPVSSIEVIAEFGNLKNFKDWYNNGQFDKRKQETENKFEKDLRKKLVNNEIILDDDFPSVMVYDAYMRPEVDHDTTPFVWGVPDLDMLRSFMKTQLGWPHEKSDEILIPLIRDVNKRKKKGKQKRINEFFPREYISGDKKLNTSKRISTATGKLKKRKM
notes: Rad2 (XPG homologue), yeast; plasmid pGVD52-RAD2HisSumo; also called yeast homolog of XPG; source: E. coli Rosetta(DE3), purified (HisTrap, Ulp1 cleavage, HisTrap flow-through, Heparin HP)
For the molecule B2, the “percent of TFIIH dissociated from Rad4–Rad23–Rad33 and bound to Rad2 (Rad2 in ~6-fold molar excess, ATP)” value in the series with 7-subunit coreTFIIH was roughly 50%.

B3: Rad4–Rad23–Rad33 complex (complex, yeast)
chain 1: MNEDLPKEYFELIRKALNEKEAEKAPLSRRRRVRRKNQPLPDAKKKFKTGLNELPRESVVTVNLDSSDDGVVTVPTDDSVEEIQSSEEDYDSEEFEDVTDGNEVAGVEDISVEIKPSSKRNSDARRTSRNVCSNEERKRRKYFHMLYLVCLMVHGFIRNEWINSKRLSRKLSNLVPEKVFELLHPQKDEELPLRSTRKLLDGLKKCMELWQKHWKITKKYDNVGLYMRTWKEIEMSANNKRKFKTLKRSDFLRAVSKGHGDPDISVQGFVAMLRACNVNARLIMSCQPPDFTNMKIDTSLNGNNAYKDMVKYPIFWCEVWDKFSKKWITVDPVNLKTIEQVRLHSKLAPKGVACCERNMLRYVIAYDRKYGCRDVTRRYAQWMNSKVRKRRITKDDFGEKWFRKVITALHHRKRTKIDDYEDQYFFQRDESEGIPDSVQDLKNHPYYVLEQDIKQTQIVKPGCKECGYLKVHGKVGKVLKVYAKRDIADLKSARQWYMNGRILKTGSRCKKVIKRTVGRPKGEAEEEDERLYSFEDTELYIPPLASASGEITKNTFGNIEVFAPTMIPGNCCLVENPVAIKAARFLGVEFAPAVTSFKFERGSTVKPVLSGIVVAKWLREAIETAIDGIEFIQEDDNRKEHLLGALESWNTLLLKLRIRSKLNSTYGKIAEEEPNVTKEQNIADNHDNTETFMGGGFLPGIANHEARPYSEPSEPEDSLDYVSVDKAEESATDDDVGEDYSDFMKELEMSEESD
chain 2: MVSLTFKNFKKEKVPLDLEPSNTILETKTKLAQSISCEESQIKLIYSGKVLQDSKTVSECGLKDGDQVVFMVSQKKSTKTKVTEPPIAPESATTPGRENSTEASPSTDASAAPAATAPEGSQPQEEQTATTERTESASTPGFVVGTERNETIERIMEMGYQREEVERALRAAFNNPDRAVEYLLMGIPENLRQPEPQQQTAAAAEQPSTAATTAEQPAEDDLFAQAAQGGNASSGALGTTGGATDAAQGGPPGSIGLTVEDLLSLRQVVSGNPEALAPLLENISARYPQLREHIMANPEVFVSMLLEAVGDNMQDVMEGADDMVEGEDIEVTGEAAAAGLGQGEGEGSFQVDYTPEDDQAISRLCELGFERDLVIQVYFACDKNEEAAANILFSDHAD
chain 3: MSKSTNVSYERVELFENPKVPIEVEDEILEKYAESSLDHDMTVNELPRFFKDLQLEPTIWKLVRNEDVIIEGTDVIDFTKLVRCTCQLLILMNNLTVIDDLWSMLIRNCGRDVDFPQVALRDHVLSVKDLQKISNLIGADQSSGTIEMISCATDGKRLFMTYLDFGCVLGKLGYLKM
notes: Rad4 (XPC homologue), yeast; Rad23 (RAD23B homologue), yeast; Rad33 (CETN2 homologue), yeast; plasmid pETDuet-RAD33; also called Rad4–23–33; yeast homologue of XPC–RAD23B–CETN2; copies: + +
Consider B3, for which the binding result in series [1] is “binds”.
